Test results from patent publication US20140086829A1 (BIOREC S A, published 2014).
Residue numbers refer to the chain shown, from its start.

T1: isoform 121 of human VEGF-A (Peprotech) (human, UniProt P15692-9 27-147)
T1 construct: also called human VEGF121; VEGF 121
T1 sequence (looked up): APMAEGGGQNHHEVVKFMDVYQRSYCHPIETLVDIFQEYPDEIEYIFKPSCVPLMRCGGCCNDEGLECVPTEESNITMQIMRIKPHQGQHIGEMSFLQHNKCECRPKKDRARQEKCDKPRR

T2: mouse VEGF (Peprotech) (mouse, UniProt Q00731-2 27-190, limits assumed)
T2 construct: also called Mouse VEGF-A
T2 sequence (looked up): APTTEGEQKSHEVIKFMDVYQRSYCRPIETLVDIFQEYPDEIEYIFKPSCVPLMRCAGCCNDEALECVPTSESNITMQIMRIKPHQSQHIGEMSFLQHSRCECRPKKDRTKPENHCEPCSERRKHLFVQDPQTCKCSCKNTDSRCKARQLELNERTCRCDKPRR

T3: human GST-VEGF (human, UniProt P15692-9 27-147)
T3 construct: also called GST-VEGF humano; not shown: GST fusion partner
T3 sequence (looked up): T1 sequence (looked up)

B1: scFv L3H6 antibody fragment (scFv)
scFv: QQVQLVQSGAEVKKPGESLKISCKGSGYSFTSYWIGWVRQMPGKGLEWMGIIYPGDSDTRYSPSFQGQVTISADKSISTAYLQWSSLKASDTAMYYCARQGTHNRKIWGQGTMVTVSSAPQAKSSGSGSESKVDQAVVTQEPSLTVSPGGTVTLTCASSTGAVTSGNYPNWFQQRPGQPPRALIYSTSNKHSWTPARFSGSLLGGKAALTLSGAQPEDEAEYYCRLSYDLARPVFGGGTKLTVLG
notes: soluble, from E. coli
B2: phage displayed scFv clone 3F3 (scFv)
scFv: B1 scFv with R225L, D229S, L230G
modifications: Displayed on M13 phage as a protein III fusion; the phage part is not in the letters.
notes: also called VH H6
B3: scFv L3H5 antibody fragment (scFv)
scFv: B1 scFv with Q100L, G101V, T102H, H103R, N104Y, K106A
notes: soluble, from E. coli
B4: scFv L3H7 antibody fragment (scFv)
scFv: B1 scFv with Q100P, G101Y, T102A, H103T, N104D, R105T, K106R
notes: soluble, from E. coli
B5: phage displayed scFv clone 4D8 (scFv)
scFv: B1 scFv with Q100P, G101Y, T102A, H103T, N104D, R105T, K106R, R225L, D229S, L230G
modifications: Displayed on M13 phage as a protein III fusion; the phage part is not in the letters.
notes: also called VH H7
B6: Fab 2H1-32 (Fab, V domains shown)
VH: QVQLVQSGAEVKKPGESLKISCKGSGYSFTSYWIGWVRQMPGKGLEWMGIIYPGDSDTRYSPSFQGQVTISADKSISTAYLQWSSLKASDTAMYYCARLVVRDTEIWGQGTMVTVSS
VL: QAVVTQEPSLTVSPGGTVTLTCASSIGAVTSGNYPNWFQQRPGQPPRALIYSTSNKHSWTPARFSGSLLGGKAALTLSGAQPEDEAEYYCLLSYSGARPVFGGGTKLTVLG
B7: Fab L3H6 (Fab, V domains shown)
VH: B6 VH with L99Q, V100G, V101T, R102H, D103N, T104R, E105K
VL: B6 VL with I26T, L91R, S95D, G96L
notes: The entries are the mature chains without the six histidines and c-myc that the heavy chain carried at its C-terminus in the assay
B8: Fab L3H5 (Fab, V domains shown)
VH: B6 VH with V101H, D103Y, T104R, E105A
VL: B6 VL with I26T, L91R, S95D, G96L
notes: Entries lack the six histidines and c-myc of the heavy chain
B9: Fab L3H7 (Fab, V domains shown)
VH: B6 VH with L99P, V100Y, V101A, R102T, E105R
VL: B6 VL with I26T, L91R, S95D, G96L
notes: as for B8

What was measured:
[1] = target: T1, isoform 121 of human VEGF-A (Peprotech); test: ELISA; antigen coated 1 µg/ml; scFv 10 µg/mL; 9E10-peroxidase
Description: (§1) After several washes, 9E10 monoclonal antibody conjugated to peroxidase was added for 1 hour. After washing, the fragments bound to the solid phase were detected by the addition of substrate solution. The absorbance was read at 492 nm in a microplate reader.

mouse VEGF (Peprotech) [2] = target: T2, mouse VEGF (Peprotech); test: as above
Description: as §1

[3] = target: T4, isoform 165 of human VEGF-A (Peprotech) (human, UniProt P15692-4 27-191); test: as above
T4 construct: also called human VEGF165; VEGF 165
Target sequence in this assay (P15692 other isoform, or with tags, fused parts or gaps limits assumed): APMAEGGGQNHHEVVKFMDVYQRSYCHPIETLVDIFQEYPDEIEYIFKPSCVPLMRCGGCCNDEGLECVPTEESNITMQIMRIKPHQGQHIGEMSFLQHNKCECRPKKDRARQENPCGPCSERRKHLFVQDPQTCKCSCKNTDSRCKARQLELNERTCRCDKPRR

P64K-VEGFKDR- (human) [4] = target: P64K-VEGFKDR- (human) (UniProt P15692); test: as above
[5] = target: T1, isoform 121 of human VEGF-A (Peprotech); test: competition ELISA: human VEGF-A isoform 121 coated, scFv varied, blocked ligand soluble KDR-Fc (VEGFR2) at 0.5 ug/mL, bound KDR-Fc detected with anti-human IgG-HRPO, absorbance 492 nm
Excerpt: Detection of bound soluble receptors was made using anti human IgG antibodies conjugated with HRPO.

[6] = target: T4, isoform 165 of human VEGF-A (Peprotech); test: SPR, BIAcore-X; VEGF 165 coupled to CM5 chip; scFv injected; Langmuir 1:1
Target sequence in this assay (P15692 other isoform, or with tags, fused parts or gaps limits assumed): as above
Description: (§2) A CM5 sensor chip was activated via the covalent binding of human VEGF using N-Ethyl-N′-(3-dimethylaminopropyl)carbodihimide hydrochloride (EDC) and N-hydroxysuccinimide (NHS), according to the manufacturer's instructions.
(§3) The kinetic parameters and the equilibrium dissociation constants (KD) were calculated using the BIA Evaluation 3.2 software. The binding data were globally adjusted to a Langmuir 1:1 binding model.

[7] = target: T4, isoform 165 of human VEGF-A (Peprotech); test: SPR, BIAcore-X
Description: as §2, §3

human GST-VEGF = target: T3, human GST-VEGF; test: competition ELISA on coated GST-VEGF with soluble scFv 2H1
Description: For this, Maxisorp 96-well plates (Nunc) were coated with 10 μg/mL GST-VEGF, followed by blocking with PBS-4% skimmed milk. […] After several washes with PBS-0.1% Tween 20, VEGF-bound phages were detected using an anti-M13 antibody, conjugated to peroxidase (Amersham-Pharmacia) for 1 hour at 22° C. Following several washes, the reactions were developed with substrate solution. Absorbance was read at 492 nm in a microplate reader. […] This value is a relative indicator of the affinity of the different clones for the antigen. Higher IC50 values correspond with higher affinity.

P64K-VEGFKDR- (human) [8] = target: P64K-VEGFKDR- (human) (UniProt P15692); test: ELISA; antigen coated 1 µg/ml; Fab 10 µg/mL; 9E10-peroxidase
[9] = target: T1, isoform 121 of human VEGF-A (Peprotech); test: as above
Description: (§4) After blocking the plates with PBS-skimmed milk 4%, the Fab antibody fragments diluted in PBS-skimmed milk 4% were added at a 10 μg/mL concentration, and incubated for 1 h at 22° C. After several washes, 9E10 monoclonal antibody conjugated to peroxidase was added for 1 hour. After washing, the fragments bound to the solid phase were detected by the addition of substrate solution. The absorbance was read at 492 nm in a microplate reader.

mouse VEGF (Peprotech) [10] = target: T2, mouse VEGF (Peprotech); test: as above
Description: as §4

[11] = target: T4, isoform 165 of human VEGF-A (Peprotech); test: as above
Target sequence in this assay (P15692 other isoform, or with tags, fused parts or gaps limits assumed): as above
Description: as §4

Row | Binder | absorbance at 492 nm [1] | absorbance at 492 nm (mouse VEGF (Peprotech) [2]) | absorbance at 492 nm [3] | absorbance at 492 nm (P64K-VEGFKDR- (human) [4]) | IC50 (read off the curve) [5] [µg/mL] | Kd [6] [nM] | fold affinity against scFv 2H1 [7] [fold] | fold IC50 (relative affinity) against the original phage displayed scFv 2H1 (human GST-VEGF) [fold] | absorbance at 492 nm (P64K-VEGFKDR- (human) [8]) | absorbance at 492 nm [9] | absorbance at 492 nm (mouse VEGF (Peprotech) [10]) | absorbance at 492 nm [11]
1 | B1 | 2.84 | 1.43 | 2.89 | 2.77 | ~8 | 26.1 | 5 to 20 |  |  |  |  | 
2 | B2 |  |  |  |  |  |  |  | 6 to 10 |  |  |  | 
3 | B3 | 2.78 | 1.39 | 2.8 | 2.61 | ~9 | 42.1 |  |  |  |  |  | 
4 | B4 | 2.54 | 1.12 | 2.51 | 2.47 | ~10 | 87.3 | 5 to 20 |  |  |  |  | 
5 | B5 |  |  |  |  |  |  |  | 6 to 10 |  |  |  | 
6 | B6 |  |  |  |  |  |  |  |  | 0.704 | 0.589 | 0.091 | 0.601
7 | B7 |  |  |  |  |  |  |  |  | 2.6 | 2.56 | 1.19 | 2.46
8 | B8 |  |  |  |  |  |  |  |  | 2.51 | 2.25 | 1.09 | 2.35
9 | B9 |  |  |  |  |  |  |  |  | 2.42 | 2.22 | 1.1 | 2.2
